Reference: publication PMC6711944, “Structural insights into the species preference of the influenza B virus NS1 protein in ISG15 binding” (Protein & Cell, 2018)

T1: NS1B-NTR (1-103), N-terminal region of the influenza B virus NS1 protein (influenza B virus, UniProt P03502 1-103)
T1 construct: not shown: GST, N-terminal, cleaved
T1 sequence: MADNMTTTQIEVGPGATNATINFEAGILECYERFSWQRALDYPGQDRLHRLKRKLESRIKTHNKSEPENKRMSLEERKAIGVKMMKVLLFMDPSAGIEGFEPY

B1: bISG15-Q76A-N77A (natural protein)
chain: MGGDLTVKMLGGQEILVPLRDSMTVSELKQFIAQKINVPAFQQRLAHLDSREVLQEGVPLVLQGLRAGSTVLLVVAASISILVRNDKGRSSPYEVQLKQTVAELKQQVCQKERVQADQFWLSFEGRPMDDEHPLEEYGLMKGCTVFMNLRLRGG
notes: not shown: GST, N-terminal, cleaved
B2: NS1B-NTR, containing the 103 N-terminal residues of NS1B (influenza B virus NS1 protein) (domain or fragment)
chain: MADNMTTTQIEVGPGATNATINFEAGILECYERFSWQRALDYPGQDRLHRLKRKLESRIKTHNKSEPENKRMSLEERKAIGVKMMKVLLFMDPSAGIEGFEPY
notes: the same region as in the cited hISG15/NS1B-NTR structure PDB 3RT3
B3: mISG15-Q74A-N75A (natural protein)
chain: MAWDLKVKMLGGNDFLVSVTNSMTVSELKKQIAQKIGVPAFQQRLAHQTAVLQDGLTLSSLGLGPSSTVMLVVAASSEPLSILVRNERGHSNIYEVFLTQTVDTLKKKVSQREQVHEDQFWLSFEGRPMEDKELLGEYGLKPQCTVIKHLRLRGG
notes: as for B1

How the values were obtained:
[1] = target: T1, NS1B-NTR (1-103), N-terminal region of …; test: ITC; about 0.5 mM ISG15 injected into 250 ul of 0.05 mM NS1B-NTR in the cell, 20 aliquots of 2 ul; 25 °C; 10 mM HEPES-sodium, 500 mM NaCl, pH 7.2; MicroCal iTC200; 'one set of sites' fitting model; conditions: both partners purified
[2] = target: the molecule itself; test: crystal structure; crystal structures of NS1B-NTR in complex with mISG15, cISG15 or bISG15
[3] = target: T2, hISG15 with the first two linker residues (Asp76, Lys77) converted to alanine (human, UniProt P05161 1-157, Asp76 to alanine | Lys77 to alanine); test: ITC; isothermal titration calorimetry of NS1B-NTR and ISG15 proteins; which was titrated and the conditions are not told in the text shown; conditions: both partners purified
T2 construct: also called the mutated hISG15
T2 sequence (P05161 other isoform, or with tags, fused parts or gaps with the stated changes): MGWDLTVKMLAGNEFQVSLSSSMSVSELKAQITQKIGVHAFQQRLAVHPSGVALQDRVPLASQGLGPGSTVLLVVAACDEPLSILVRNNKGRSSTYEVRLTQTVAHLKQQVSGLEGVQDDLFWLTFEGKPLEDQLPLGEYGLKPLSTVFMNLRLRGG

[4] = target: T3, human ISG15 (human, UniProt P05161 1-157); test: as above; conditions: both partners purified
T3 construct: also called hISG15
T3 sequence (P05161 1-157): as the sequence (P05161 other isoform, or with tags, fused parts or gaps with the stated changes) above, with A76D, A77K counted along it

[5] = target: T4, murine ISG15 (murine, UniProt Q64339 1-155); test: as above; conditions: both partners purified
T4 construct: also called mISG15

[6] = target: T5, canine ISG15 (canine, UniProt A0A8I3P342 1-174); test: as above; conditions: both partners purified
T5 construct: also called cISG15
T5 sequence (A0A8I3P342 entry or part of it): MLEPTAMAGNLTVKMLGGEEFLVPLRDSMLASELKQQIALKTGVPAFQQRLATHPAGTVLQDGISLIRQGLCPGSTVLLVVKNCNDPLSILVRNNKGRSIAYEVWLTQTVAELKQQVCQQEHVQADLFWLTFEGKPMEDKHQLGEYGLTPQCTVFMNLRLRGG

[7] = target: T6, bovine ISG15 (bovine, UniProt O02741 1-154); test: as above; conditions: both partners purified
T6 construct: also called bISG15

[8] = target: T7, hISG15-L10A (human, UniProt P05161 1-157, L10A); test: as above; conditions: both partners purified
T7 construct: Mutant of m2
T7 sequence (P05161 1-157 L10A): as the sequence (P05161 other isoform, or with tags, fused parts or gaps with the stated changes) above, with L10A, A76D, A77K counted along it

Row | Binder | Kd [1] | stoichiometry N [2] | Kd [3] | Kd [4] | stoichiometry N [4] | Kd [5] | stoichiometry N [5] | Kd [6] | stoichiometry N [6] | Kd [7] | stoichiometry N [7] | Kd [8]
1 | B1 | 10 µM | – | – | – | – | – | – | – | – | – | – | –
2 | B2 | – | 2 | 5 µM | 0.28 µM | 1 | 13 µM | 1 | 34 µM | 1 | 12 µM | 1 | 17 µM
3 | B3 | 6 µM | – | – | – | – | – | – | – | – | – | – | –
